In patent US20210101960A1:

How the values were obtained:
[1] = target: opioid sensor based on the Mu-opioid receptor (cpGFP inserted into the Loop3 of the Mu-opioid receptor) (human); assay: in situ fluorescence titration (drug/response curve, 1 nM to 1 µM DAMGO) on HEK293T cells expressing the opioid sensor
[2] = target: opioid sensor based on the Mu-opioid receptor (cpGFP inserted into the Loop3 of the Mu-opioid receptor) (human); assay: cell-based or functional assay

Substance: DAMGO (peptide)
- Kd [1]: 25 nM
- ΔF/F (fluorescence change of the sensor) [2]: 25%
